According to PMC6461443, “Complement C4 Prevents Viral Infection through Capsid Inactivation” (Cell Host & Microbe, 2019):

B1: Ad5 fiber protein (natural protein)
chain: MKRARPSEDTFNPVYPYDTETGPPTVPFLTPPFVSPNGFQESPPGVLSLRLSEPLVTSNGMLALKMGNGLSLDEAGNLTSQNVTTVSPPLKKTKSNINLEISAPLTVTSEALTVAAAAPLMVAGNTLTMQSQAPLTVHDSKLSIATQGPLTVSEGKLALQTSGPLTTTDSSTLTITASPPLTTATGSLGIDLKEPIYTQNGKLGLKYGAPLHVTDDLNTLTVATGPGVTINNTSLQTKVTGALGFDSQGNMQLNVAGGLRIDSQNRRLILDVSYPFDAQNQLNLRLGQGPLFINSAHNLDINYNKGLYLFTASNNSKKLEVNLSTAKGLMFDATAIAINAGDGLEFGSPNAPNTNPLKTKIGHGLEFDSNKAMVPKLGTGLSFDSTGAITVGNKNNDKLTLWTTPAPSPNCRLNAEKDAKLTLVLTKCGSQILATVSVLAVKGSLAPISGTVQSAHLIIRFDENGVLLNNSFLDPEYWNFRNGDLTEGTAYTNAVGFMPNLSAYPKSHGKTAKSNIVSQVYLNGDKTKPVTLTITLNGTQETGDTTPSAYSMSFSWDWSGHNYINEIFATSSYTFSYIAQE
notes: source: in Ad5 (E1/E3 deleted) virions, bought: ViraQuest
B2: Ad5 penton base (natural protein)
chain: MRRAAMYEEGPPPSYESVVSAAPVAAALGSPFDAPLDPPFVPPRYLRPTGGRNSIRYSELAPLFDTTRVYLVDNKSTDVASLNYQNDHSNFLTTVIQNNDYSPGEASTQTINLDDRSHWGGDLKTILHTNMPNVNEFMFTNKFKARVMVSRLPTKDNQVELKYEWVEFTLPEGNYSETMTIDLMNNAIVEHYLKVGRQNGVLESDIGVKFDTRNFRLGFDPVTGLVMPGVYTNEAFHPDIILLPGCGVDFTHSRLSNLLGIRKRQPFQEGFRITYDDLEGGNIPALLDVDAYQASLKDDTEQGGGGAGGSNSSGSGAEENSNAAAAAMQPVEDMNDHAIRGDTFATRAEEKRAEAEAAAEAAAPAAQPEVEKPQKKPVIKPLTEDSKKRSYNLISNDSTFTQYRSWYLAYNYGDPQTGIRSWTLLCTPDVTCGSEQVYWSLPDMMQDPVTFRSTRQISNFPVVGAELLPVHSKSFYNDQAVYSQLIRQFTSLTHVFNRFPENQILARPPAPTITTVSENVPALTDHGTLPLRNSIGGVQRVTITDARRRTCPYVYKALGIVSPRVLSSRTF
notes: as for B1

Biological target: T1, Ad5 hexon, in the virion (human adenovirus 5, UniProt P04133 1-952)
T1 construct: source: in Ad5 (E1/E3 deleted) virions, bought: ViraQuest
T1 sequence (P04133 whole entry): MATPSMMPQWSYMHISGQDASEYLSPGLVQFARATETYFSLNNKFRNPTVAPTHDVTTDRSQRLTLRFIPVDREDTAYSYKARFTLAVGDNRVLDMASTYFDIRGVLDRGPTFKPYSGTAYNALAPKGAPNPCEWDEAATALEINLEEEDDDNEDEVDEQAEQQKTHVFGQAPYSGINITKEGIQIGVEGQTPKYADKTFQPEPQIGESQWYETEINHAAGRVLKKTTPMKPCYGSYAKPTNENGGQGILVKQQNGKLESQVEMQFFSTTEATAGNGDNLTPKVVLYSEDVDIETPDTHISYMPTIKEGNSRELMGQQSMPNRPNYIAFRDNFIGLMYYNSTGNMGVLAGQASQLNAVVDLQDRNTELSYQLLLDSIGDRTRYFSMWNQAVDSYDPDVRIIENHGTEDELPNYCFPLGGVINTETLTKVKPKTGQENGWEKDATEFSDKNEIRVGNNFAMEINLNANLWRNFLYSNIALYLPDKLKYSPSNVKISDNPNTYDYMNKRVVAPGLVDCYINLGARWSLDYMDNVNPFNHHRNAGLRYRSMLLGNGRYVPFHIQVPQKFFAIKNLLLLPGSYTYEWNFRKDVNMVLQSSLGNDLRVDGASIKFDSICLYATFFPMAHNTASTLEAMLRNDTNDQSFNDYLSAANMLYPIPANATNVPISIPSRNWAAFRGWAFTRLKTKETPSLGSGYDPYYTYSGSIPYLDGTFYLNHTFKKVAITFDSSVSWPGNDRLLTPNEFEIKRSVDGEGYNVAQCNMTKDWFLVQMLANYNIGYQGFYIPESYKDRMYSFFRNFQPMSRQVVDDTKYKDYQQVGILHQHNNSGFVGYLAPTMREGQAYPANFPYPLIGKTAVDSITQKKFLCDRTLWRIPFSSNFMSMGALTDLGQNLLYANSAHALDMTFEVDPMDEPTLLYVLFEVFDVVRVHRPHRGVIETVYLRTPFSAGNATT
Experiment: co-IP
Details: both partners purified

Binder | binding result
B1 | binds
B2 | binds
